For the assay, the target named is MLL3 ePHD6 E1097A (human) (UniProt Q8NEZ4). Put plainly: ITC; peptide (1–2 mM) in the syringe injected into protein (50–100 μM) in the cell; 25 °C; 20 mM Tris pH 7.5, 150 mM NaCl; single-site binding model. (In general: Isothermal titration calorimetry measures the heat released or taken up as one component is titrated into another.)

These results are taken from PMC6318328, “Structural insights into trans-histone regulation of H3K4 methylation by unique histone H4 binding of MLL3/4” (Nature Communications, 2019).

Substance “histone H4 peptide H4_(11–21) (from UniProt P62805 12-22)” gave a fold reduction of binding against the wild type of 2 fold.
